# Numbering of substitutions follows the chain as printed. In names and notes the source's numbering stands.
# B1: 1D2 SDR mutant K54G/V32R (antibody, IgG1, V domains shown)
# VH: QVQLVQSGAEVKKPGASVKVSCEASGYTFTDKYLHWVRQAPGQGLEWMAWINPGSGGTFYAQNFKGRVTVTRDTSINTAYLELTSLRLDDTSTYYCARGRDYYDQGAADLWGQGTMVTVSS
# VL: DIQLTQSPSSLSASVGDRVTITCRASQGINSRLAWYQQKPGKAPKLLLYAASKLESGVPSRFSGSGSGTDYTLTISSLQPEDFGTYYCQQYYSPVRTFGQGTKVEIKR
# notes: also called 54G/32R
# B2: 1D2 SDR mutant Y103R/V32R (antibody, IgG1, V domains shown)
# VH: B1 VH with G54K, Y103R
# VL: B1 VL
# B3: 1D2 SDR mutant Y103N/V32R (antibody, IgG1, V domains shown)
# VH: B1 VH with G54K, Y103N
# VL: B1 VL
# B4: 1D2 SDR mutant HK54G (antibody, IgG1, V domains shown)
# VH: B1 VH
# VL: B1 VL with R32V
# notes: also called X3 G
# B5: 1D2 SDR mutant LV32R (antibody, IgG1, V domains shown)
# VH: B1 VH with G54K
# VL: B1 VL
# notes: also called X8 R
# B6: 1D2 SDR mutant HY103R (antibody, IgG1, V domains shown)
# VH: B1 VH with G54K, Y103R
# VL: B1 VL with R32V
# notes: also called X6 R
# B7: 1D2 SDR mutant HY103N (antibody, IgG1, V domains shown)
# VH: B1 VH with G54K, Y103N
# VL: B1 VL with R32V
# notes: also called X6 N
# B8: 1D2 SDR mutant HQ105N (antibody, IgG1, V domains shown)
# VH: B1 VH with G54K, Q105N
# VL: B1 VL with R32V
# notes: also called X7 N
# B9: 1D2 SDR mutant LP94N (antibody, IgG1, V domains shown)
# VH: B1 VH with G54K
# VL: B1 VL with R32V, P94N
# notes: also called X9 N
# B10: AMG203 (namilumab) (antibody, INN chains, looked up, human IgG1, V domains shown)
# VH: QVQLVQSGAEVKKPGASVKVSCKAFGYPFTDYLLHWVRQAPGQGLEWVGWLNPYSGDTNYAQKFQGRVTMTRDTSISTAYMELSRLRSDDTAVYYCTRTTLISVYFDYWGQGTMVTVSS
# VL: DIQMTQSPSSVSASVGDRVTIACRASQNIRNILNWYQQRPGKAPQLLIYAASNLQSGVPSRFSGSGSGTDFTLTINSLQPEDFATYYCQQSYSMPRTFGGGTKLEIK
# modifications: IgG1 kappa
# B11: 1D2-D90E (DE) (antibody, IgG1, V domains shown)
# VH: B1 VH with G54K, D90E
# VL: B1 VL with R32V
# notes: also called ID2-D90E (DE); DE mutant
# B12: 1D2-D89E (ED) (antibody, IgG1, V domains shown)
# VH: B1 VH with G54K, D89E
# VL: B1 VL with R32V
# notes: also called ID2-D89E (ED); ED mutant
# B13: 1D2 SDR mutant LV32H (antibody, IgG1, V domains shown)
# VH: B1 VH with G54K
# VL: B1 VL with R32H
# notes: also called X8 H
# B14: 1D2 SDR mutant LV95E (antibody, IgG1, V domains shown)
# VH: B1 VH with G54K
# VL: B1 VL with R32V, V95E
# notes: also called X10 E
# B15: 1D2 SDR mutant LV32Y (antibody, IgG1, V domains shown)
# VH: B1 VH with G54K
# VL: B1 VL with R32Y
# notes: also called X8 Y
# B16: 1D2 SDR mutant LV32P (antibody, IgG1, V domains shown)
# VH: B1 VH with G54K
# VL: B1 VL with R32P
# notes: also called X8 P
# B17: 1D2 SDR mutant LV95C (antibody, IgG1, V domains shown)
# VH: B1 VH with G54K
# VL: B1 VL with R32V, V95C
# notes: also called X10 C
# B18: 1D2 SDR mutant LV95P (antibody, IgG1, V domains shown)
# VH: B1 VH with G54K
# VL: B1 VL with R32V, V95P
# notes: also called X10 P
# B19: 1D2 SDR mutant LV95R (antibody, IgG1, V domains shown)
# VH: B1 VH with G54K
# VL: B1 VL with R32V, V95R
# notes: also called X10 R
# B20: 1D2 SDR mutant LV95D (antibody, IgG1, V domains shown)
# VH: B1 VH with G54K
# VL: B1 VL with R32V, V95D
# notes: also called X10 D
# B21: 1D2 SDR mutant LV95L (antibody, IgG1, V domains shown)
# VH: B1 VH with G54K
# VL: B1 VL with R32V, V95L
# notes: also called X10 L
# B22: 1D2 SDR mutant LV32L (antibody, IgG1, V domains shown)
# VH: B1 VH with G54K
# VL: B1 VL with R32L
# notes: also called X8 L
# Target: T1, recombinant human GM-CSF (human, UniProt P04141 18-144)
# T1 construct: also called rhGM-CSF; CSF2
# Experiment: Gator (pro), Coating Ag
# T1 sequence (P04141 18-144 limits assumed): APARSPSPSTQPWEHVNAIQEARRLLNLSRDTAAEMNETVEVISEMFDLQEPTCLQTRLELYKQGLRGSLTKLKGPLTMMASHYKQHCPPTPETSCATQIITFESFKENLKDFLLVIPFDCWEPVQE
row,Kd [pM],Molecule
1,0.746,B1
2,2.8,B2
3,5.84,B3

# Target: T1, recombinant human GM-CSF
# Experiment: cell-based or functional assay
"IC50 (M), inhibition of GM-CSF induced TF-1 cell proliferation (FIG. 5B) [M]","IC50 (M), inhibition of GM-CSF induced TF-1 cell proliferation (FIG. 5A) [M]",Molecule
1.87e-09,–,B4
6.62e-09,–,B1
2.48e-09,–,B5
3.47e-09,–,B6
3.6e-09,3.41e-09,B7
~8.19e-09,–,B2
7.67e-09,–,B8
1.49e-09,–,B9
~6.83e-09,–,B3

# Target: recombinant human GM-CSF (human) (UniProt P04141)
# Experiment: SPR Biacore 3000, antibody captured by goat anti-human IgG, rhGM-CSF injected
# Sequence of recombinant human GM-CSF (human) (P04141 18-144 limits assumed): as above
Kd [pM],koff [s⁻¹],kon [M⁻¹ s⁻¹],Molecule
620,4.77e-05,296000,B10

# Target: T1, recombinant human GM-CSF
# Experiment: Biacore
Kd [pM],koff [s⁻¹],kon [M⁻¹ s⁻¹],Molecule
114,0.000198,1.74e+06,B11
73.2,0.000188,2.58e+06,B12

# Target: T1, recombinant human GM-CSF
# Experiment: Gator, Coating Ab
row,Kd [pM],Molecule
1,929,B1
2,4140,B2
3,1440,B3

# Target: T1, recombinant human GM-CSF
# Experiment: Biacore
# Remark: another data set of the same source
Ka [M⁻¹],Kd [pM],koff [s⁻¹],kon [M⁻¹ s⁻¹],Molecule
2.89e+09,346,0.000448,1.3e+06,B4
5.23e+08,1910,0.00197,1.03e+06,B1
2.42e+09,414,0.00057,1.38e+06,B6
2.5e+09,400,0.000669,1.67e+06,B7
4.14e+08,2420,0.00241,998000,B2
2.37e+08,4220,0.0027,640000,B3

# Target: T1, recombinant human GM-CSF
# Experiment: cell-based or functional assay
# Remark: another data set of the same source
"IC50, inhibition of GM-CSF induced TF-1 cell proliferation [pM]","IC50, inhibition of rhGM-CSF induced IL-8 secretion in U937 cells [pM]","IC50, inhibition of rhGM-CSF induced CCL17 secretion from PBMCs [pM]",Molecule
123,54,–,B11
97.1,51,54.3,B12

# Target: T1, recombinant human GM-CSF
# Experiment: Gator, Coating Ag
row,Kd [pM],Molecule
1,22.2,B1
2,30.9,B2
3,20.1,B3

# Target: T1, recombinant human GM-CSF
# Experiment: ELISA, human GM-CSF coated on the plate, anti-human kappa light chain-HRP, OD 450 nm
# Experimental: (§1) Human and mouse GM-CSF have about 56% homology and are species specific. Rhesus and GM-CSF has 96.5% homologous to human GM-CSF (Hutchinson et al, J Med Virol 2001, 65:561-565, Genbank accession number AY007376). […] ELISA was performed as followed. Briefly, GM-CSF proteins were coated on the ELISA absorbing plates, then blocked by 1% BSA in PBS. […] After incubation, the plates were washed three times with TBST and incubated with anti-human kappa light chain conjugated HRP secondary antibodies. Plates were washed three times, TMB peroxidase substrate was added and reactions were stopped by adding 1 N sulfuric acid.
row,EC50 (read off the curve) [pM],Molecule
1,~500,B11
2,~500,B12

# Target: recombinant human GM-CSF (human) (UniProt P04141)
# Experiment: ELISA, GM-CSF coated on the plate, anti-human kappa light chain-HRP, OD 450 nm
row,EC50 (read off the curve) [pM],Molecule
1,50,B10

# Target: rhesus GM-CSF (rhesus) (UniProt Q9GL44)
# Experiment: as above
# Sequence of rhesus GM-CSF (rhesus) (Q9GL44 entry or part of it limits assumed): as the sequence (P04141 18-144 limits assumed) above, with S9G, E38K, I43V, T53S, R67Q, E104Q counted along it
row,EC50 (read off the curve) [pM],Molecule
1,50,B10

# Target: T1, recombinant human GM-CSF
# Experiment: ELISA on coated rhGM-CSF, UBA relative to 1D2
# Procedure, shortened: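 Antibody clones carrying SDR point mutants in VH or VL, each paired with the wild-type chain, were expressed in HEK293 cells. Culture media diluted 1:12000 were bound to plates coated with rhGM-CSF at 1 μg/mL for 1 h at room temperature. Detection used HRP anti-human antibody and Amplex Red fluorescence (Ex530/Em590), with UBA = fluorescence signal/dilution factor.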
row,binding affinity % of 1D2 [%],Molecule
1,114,B4
2,1030,B5
3,128,B13
4,40,B14
5,115,B6
6,114,B15
7,581,B16
8,130,B7
9,46,B17
10,46,B18
11,45,B19
12,47,B20
13,41,B21
14,156,B8
15,60,B9
16,167,B22

# Target: T1, recombinant human GM-CSF
# Experiment: Biacore
# Remark: another data set of the same source
row,Kd [pM],Molecule
1,1500,B1
2,7760,B2
3,3360,B3

# Target: recombinant human GM-CSF (human) (UniProt P04141)
# Experiment: cell-based or functional assay
row,"Mean Fluorescence Intensity of phospho-STAT5 (pY694) in human PBMCs stimulated with 10 ng/mL rhGM-CSF, 2 ug/mL antibody (no antibody: 122.0) [MFI]",Molecule
1,42.6,B10

# Target: recombinant human IL-3 (human) (UniProt P08700)
# Experiment: cell-based or functional assay
# Sequence of recombinant human IL-3 (human) (P08700 20-152 limits assumed): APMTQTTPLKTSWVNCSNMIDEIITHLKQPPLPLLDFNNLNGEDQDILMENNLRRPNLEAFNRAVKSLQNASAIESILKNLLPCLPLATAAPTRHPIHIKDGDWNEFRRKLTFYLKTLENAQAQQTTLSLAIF
row,"Mean Fluorescence Intensity of phospho-STAT5 (pY694) in human PBMCs stimulated with 10 ng/mL rhIL-3, 2 ug/mL antibody (no antibody: 102) [MFI]",Molecule
1,106,MOR103 (otilimab) (antibody)
2,104,B10

# Target: rhesus GM-CSF (rhesus, UniProt Q9GL44 18-144)
# Experiment: ELISA, rhesus GM-CSF coated on the plate, anti-human kappa light chain-HRP, OD 450 nm
# Experimental: as §1
# Sequence of rhesus GM-CSF (Q9GL44 entry or part of it limits assumed): as the sequence (P04141 18-144 limits assumed) above, with S9G, E38K, I43V, T53S, R67Q, E104Q counted along it
row,EC50 (read off the curve) [pM],Molecule
1,~600,B11
2,~600,B12

# Source: patent publication US20210309732A1 (ELIXIRON IMMUNOTHERAPEUTICS HONG KONG, published 2021)
